Measurements published in patent publication US20200157212A1 (Pfizer, published 2020).
Numbering of substitutions follows the chain as printed.

T1: Rat ROBO2 on cells (rat, UniProt Q7TPD3 22-1469 (mouse entry))
T1 construct: overexpressed on HEK293 cells in flow cytometry; endogenous on rat SVZ neuronal explants in the SVZa assay
T1 chain: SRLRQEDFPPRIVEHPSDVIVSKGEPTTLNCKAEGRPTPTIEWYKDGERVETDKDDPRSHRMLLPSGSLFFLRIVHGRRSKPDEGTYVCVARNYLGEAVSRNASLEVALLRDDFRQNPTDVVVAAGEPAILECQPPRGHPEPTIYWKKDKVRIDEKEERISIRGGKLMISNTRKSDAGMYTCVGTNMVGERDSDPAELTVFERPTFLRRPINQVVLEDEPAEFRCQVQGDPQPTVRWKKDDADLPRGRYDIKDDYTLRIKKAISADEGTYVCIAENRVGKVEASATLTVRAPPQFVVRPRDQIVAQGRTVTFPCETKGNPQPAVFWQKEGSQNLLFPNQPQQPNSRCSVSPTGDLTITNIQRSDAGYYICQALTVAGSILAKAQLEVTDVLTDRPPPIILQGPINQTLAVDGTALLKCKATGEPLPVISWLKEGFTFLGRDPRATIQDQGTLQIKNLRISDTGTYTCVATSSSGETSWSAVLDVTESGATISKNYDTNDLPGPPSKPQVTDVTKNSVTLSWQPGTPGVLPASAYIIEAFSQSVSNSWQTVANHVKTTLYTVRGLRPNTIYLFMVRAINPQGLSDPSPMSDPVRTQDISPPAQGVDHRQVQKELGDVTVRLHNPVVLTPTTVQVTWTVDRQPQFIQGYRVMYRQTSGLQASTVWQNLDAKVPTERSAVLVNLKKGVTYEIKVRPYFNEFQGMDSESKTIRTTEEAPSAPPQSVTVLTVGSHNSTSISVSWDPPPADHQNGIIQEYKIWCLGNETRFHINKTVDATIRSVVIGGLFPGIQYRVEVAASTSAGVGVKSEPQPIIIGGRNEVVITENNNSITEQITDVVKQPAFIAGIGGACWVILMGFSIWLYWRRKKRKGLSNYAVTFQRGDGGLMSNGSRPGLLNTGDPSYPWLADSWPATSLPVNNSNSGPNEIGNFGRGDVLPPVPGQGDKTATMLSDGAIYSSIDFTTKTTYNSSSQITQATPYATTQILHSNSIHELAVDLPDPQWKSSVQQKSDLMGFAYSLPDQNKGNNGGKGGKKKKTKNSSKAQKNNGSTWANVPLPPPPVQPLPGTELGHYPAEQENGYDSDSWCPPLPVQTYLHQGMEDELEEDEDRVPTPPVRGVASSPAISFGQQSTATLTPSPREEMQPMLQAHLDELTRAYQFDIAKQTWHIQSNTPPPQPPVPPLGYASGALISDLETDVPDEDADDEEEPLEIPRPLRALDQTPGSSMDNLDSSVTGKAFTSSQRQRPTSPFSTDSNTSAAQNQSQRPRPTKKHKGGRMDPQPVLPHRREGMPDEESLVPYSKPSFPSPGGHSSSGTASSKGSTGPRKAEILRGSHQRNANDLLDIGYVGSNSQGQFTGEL

B1: 93H2 (antibody, human IgG1, kappa, V domains shown)
VH: EVQLVQSGAEVKKPGASVKVSCKASGYTFTGYYMHWVRQAPGQGLEWMGWINPNSGATNFPQKFQGRVTMTRDTSITTAYMDLSRLRSDDTAVYYCARESGDDAFDIWGQGTMVTVSS
VL: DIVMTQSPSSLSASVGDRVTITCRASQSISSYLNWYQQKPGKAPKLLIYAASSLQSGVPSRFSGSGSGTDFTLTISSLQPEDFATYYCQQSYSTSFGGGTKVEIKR
notes: also called parental 93H2; 93H2 mAb
B2: Abcs25 (antibody, human IgG1, kappa, V domains shown)
VH: B1 VH with N54K, S55D, A57D, N59E
VL: DIVMTQSPSSLSASVGDRVTITCRASQSISSYLNWYQQKPGKAPKLLIYAASSLQSGVPSRFSGSGSGTDFTLTISSLQPEDFATYYCQQSVGLSFGGGTKVEIKR
notes: chain-shuffled IgG
B3: Abcs35 (antibody, human IgG1, kappa)
heavy: EVQLVQSGAEVKKPGASVKVSCKASGYTFTGYYMHWVRQAPGQGLEWMGWINPKNGDTEFPQKFQGRVTMTRDTSITTAYMDLSRLRSDDTAVYYCARESGDDAFDIWGQGTMVTVSSASTKGPSVFPLAPSSKSTSGGTAALGCLVKDYFPEPVTVSWNSGALTSGVHTFPAVLQSSGLYSLSSVVTVPSSSLGTQTYICNVNHKPSNTKVDKKVEPKSCDKTHTCPPCPAPEAAGAPSVFLFPPKPKDTLMISRTPEVTCVVVDVSHEDPEVKFNWYVDGVEVHNAKTKPREEQYNSTYRVVSVLTVLHQDWLNGKEYKCKVSNKALPAPIEKTISKAKGQPREPQVYTLPPSREEMTKNQVSLTCLVKGFYPSDIAVEWESNGQPENNYKTTPPVLDSDGSFFLYSKLTVDKSRWQQGNVFSCSVMHEALHNHYTQKSLSLSPGK
light: DIVMTQSPSSLSASVGDRVTITCRASQSISSYLNWYQQKPGKAPKLLIYAASSLQSGVPSRFSGSGSGTDFTLTISSLQPEDFATYYCQQSVGLFFGGGTKVEIKRTVAAPSVFIFPPSDEQLKSGTASVVCLLNNFYPREAKVQWKVDNALQSGNSQESVTEQDSKDSTYSLSSTLTLSKADYEKHKVYACEVTHQGLSSPVTKSFNRGEC
notes: fully human IgG1; VH of Ab96 with VL of Ab123

Target: T1, Rat ROBO2 on cells
Assay: flow cytometry, HEK293 cells, average of n = 3
Method: Binding of the antibodies was detected using a secondary fluorochrome conjugated anti-human IgG F(ab′)₂ antibody and samples were analyzed on a Fortessa cytometer (BD Biosciences). The fold ROBO2 selectivity was calculated as the geometric mean fluorescence intensity (Geo MFI) with ROBO2 cells/Geo MFI with ROBO1 cells. A fold change higher than 3 was considered to be ROBO2 specific (Table 2, Fold Selectivity). Some affinity matured clones had increased ROBO1 reactivity, for example Abcs 55, CTI-R2-10 and CTIR2-13.
Based upon several criteria, Abcs25 and Abcs35 were selected for further characterization. Using flow cytometry, improvement in the binding EC₅₀ to human ROBO2 relative to the parental 93H2 was evaluated. Starting at 6.7 nM, 11-point, 3-fold dilution series were made for each antibody and used to stain HEK293 overexpressing human ROBO2 as described above for the ROBO2 fold selectivity (Example 2). […] In addition to measuring improved binding to human ROBO2, it was important to ensure that high affinity binding to both cynomolgus monkey ROBO2 and rat ROBO2 was maintained. Using HEK293 cells overexpressing either cynomolgus monkey ROBO2 or rat ROBO2, the relative dose-dependent binding of 93H2, Abcs25 and Abcs35 was evaluated as described above. High affinity binding to both cynomolgus monkey and rat ROBO2 was maintained in Abcs25 and Abcs35 (Table 4). […] Briefly, Abcs35 was immobilized to 300 resonance units (RU) on a CM5 chip. Association of ROBO2 Ig1-Ig2-His (ROBO2) was measured over 5 minutes and dissociation was followed for a period of 10 minutes.

Binder | EC50 [nM]
B1 | 1.2
B2 | 0.062
B3 | 0.048
